Where two headings read alike, the source gives them in different places. Blank lines part the entries; values can stand above or below the binder they belong to.
Assays:
human plasma kallikrein [1] = target: T1, human plasma kallikrein (human, UniProt P03952 20-390; P03952 391-638); experiment: ELISA, biotinylated pKal signal over streptavidin background
T1 construct: two disulfide-linked chains; NP_000883.2; also called pKal; hpKal

human plasma kallikrein [2] = target: T1, human plasma kallikrein; experiment: as above; remark: listed apart in the source

T1 sequence (P03952 20-390 limits assumed, chain 1 of 2): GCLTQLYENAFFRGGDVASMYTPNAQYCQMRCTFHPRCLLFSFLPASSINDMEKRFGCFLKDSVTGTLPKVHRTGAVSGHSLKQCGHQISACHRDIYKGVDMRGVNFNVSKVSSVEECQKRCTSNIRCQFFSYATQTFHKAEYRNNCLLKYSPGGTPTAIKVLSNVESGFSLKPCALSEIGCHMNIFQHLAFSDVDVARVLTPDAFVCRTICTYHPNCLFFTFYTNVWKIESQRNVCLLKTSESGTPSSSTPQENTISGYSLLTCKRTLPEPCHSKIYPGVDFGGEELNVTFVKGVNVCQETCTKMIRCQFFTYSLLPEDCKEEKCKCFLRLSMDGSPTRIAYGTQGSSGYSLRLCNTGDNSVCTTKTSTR
T1 sequence (P03952 391-638 limits assumed, chain 2 of 2): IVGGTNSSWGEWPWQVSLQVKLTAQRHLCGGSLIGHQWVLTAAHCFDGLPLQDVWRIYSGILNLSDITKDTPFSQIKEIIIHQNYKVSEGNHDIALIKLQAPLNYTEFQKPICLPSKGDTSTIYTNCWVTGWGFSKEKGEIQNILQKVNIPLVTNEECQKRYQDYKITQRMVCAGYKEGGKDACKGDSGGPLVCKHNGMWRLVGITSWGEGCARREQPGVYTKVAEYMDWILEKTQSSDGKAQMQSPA

ELISA (T/B) (human plasma kallikrein [1]): 41.3
B1: M27-E05 (Fab, V domains shown)
VH: EVQLLESGGGLVQPGGSLRLSCAASGFTFSWYLMIWVRQAPGKGLEWVSYIYPSGGFTYYADSVKGRFTISRDNSKNTLYLQMNSLRAEDMAVYYCARTEGPLSWGYGMDVWGQGTTVTVSS
VL: not shown

ELISA (T/B) (human plasma kallikrein [1]): 4
B2: M73-D06 (Fab, V domains shown)
VH: EVQLLESGGGLVQPGGSLRLSCAASGFTFSRYEMYWVRQAPGKGLEWVSSISSSGGPTAYADSVKGRFTISRDNSKNTLYLQMNSLRAEDTAMYYCAKGTPKWELLLRSIYIENAFDIWGQGTMVTVSS
VL: QSELTQPPSASETPGQRVTISCSGSSSNIGSNTVSWFQQLPGSAPRLLIYNDHRRPSGVPDRFSGSKSGTSASLVISGLQSQDEADYYCSAWDDSLNGVVFGGGTKLTVL

ELISA (T/B) (human plasma kallikrein [2]): 25
B3: M11-A10 (Fab, V domains shown)
VH: EVQLLESGGGLVQPGGSLRLSCAASGFTFSNYWMMWVRQAPGKGLEWVSGIGSSGGFTSYADSVKGRFTISRDNSKNTLYLQMNSLRAEDTAVYYCAKGSYSDYGVFESWGQGTLVTVSS
VL: DIQMTQSPSSLSASVGDRVAITCRASQSIDTYLNWYQQKPGKAPKLLIYDASNLEIGVPSRFSGSGSGTDFTFIINSLQPEDVATYYCQHYLYAPYSFGQGTKLEIK

ELISA (T/B) (human plasma kallikrein [2]): 43.2
B4: M11-E04 (Fab, V domains shown)
VH: EVQLLESGGGLVQPGGSLRLSCAASGFTFSMYHMNWVRQAPGKGLEWVSGIVSSGGVTFYADSVKGRFTISRDNSKNTLYLQMNSLRAEDTAVYYCARITTVTTGGAFDIWGQGTMVTVSS
VL: DIQMTQSPSSLSASVGDRVTITCRASQSISIYLTWYQHRPGKAPNLLIYGAATLQTGVPSRFSGSGSGTDFTLTIRGLQPEDFATYYCQQTFSLPRTFGQGTKLEIK

ELISA (T/B) (human plasma kallikrein [2]): 41.4
B5: M11-E05 (Fab, V domains shown)
VH: EVQLLESGGGLVQPGGSLRLSCAASGFTFSWYTMGWVRQAPGKGLEWVSWIYFGGLTTYADSVKGRFTISRDNSKNTLYLQMNSLRAEDTAVYYCARLGGPLDAFDIWGQGTMVTVSS
VL: DIQMTQSPSSLSASVGDTVTITCRTSQTINNYLNWYQQRPGEAPKVLIYATHTLESGVPSRFSGSGSGTDFTLTIGSLQPEDFATYYCQQSFAFPYTFGQGTKVEIT

ELISA (T/B) (human plasma kallikrein [2]): 11.7
B6: M11-E01 (Fab, V domains shown)
VH: EVQLLESGGGLVQPGGSLRLSCAASGFTFSTYEMYWVRQAPGKGLEWVSGIGSSGGMTMYADSVKGRFTISRDNSKNTLYLQMNSLRAEDTAMYYCAREQPGIAALQFWGQGTLVTVSS
VL: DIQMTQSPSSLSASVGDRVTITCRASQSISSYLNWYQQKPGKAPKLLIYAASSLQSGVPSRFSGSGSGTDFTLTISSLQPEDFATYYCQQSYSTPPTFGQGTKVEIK

ELISA (T/B) (human plasma kallikrein [1]): 28
B7: M41-A11 (Fab, V domains shown)
VH: EVQLLESGGGLVQPGGSLRLSCAASGFTFSHYRMSWVRQAPGKGLEWVSSIYPSGGRTVYADSVKGRFTISRDNSKNTLYLQMNSLRAEDTAVYYCAKDKFEWRLLFRGIGNDAFDIWGQGTMVTVSS
VL: QSVLTQPPSVSVSPGQTASITCSGDKLGDKYTSWYQQRPGQSPVLVIYQDIKRPSGIPERFSGSNSGNTATLTISGTQAMDEADYYCQAWDSPNARVFGSGTKVTVL

ELISA (T/B) (human plasma kallikrein [1]): 33.5
B8: M38-F02 (Fab, V domains shown)
VH: EVQLLESGGGLVQPGGSLRLSCAASGFTFSYYMMVWVRQAPGKGLEWVSYIYSSGGHTVYADSVKGRFTISRDNSKNTLYLQMNSLRAEDTAVYYCARDLFLYDFWSKGAFDIWGQGTMVTVSS
VL: QSVLTQPPSVSVSPGQTASITCSGEKLGDKYVSWYQQKPGQSPSLVICEDSRRPSGIPERFSGSNSGNTATLTISGAQPMDEADYYCQAWDSSTAIFGPGTKVTVL

ELISA (T/B) (human plasma kallikrein [2]): 23.6
B9: M11-G09 (Fab, V domains shown)
VH: EVQLLESGGGLVQPGGSLRLSCAASGFTFSLYNMTWVRQAPGKGLEWVSYIYPSGGGTHYADSVKGRFTISRDNSKNTLYLQMNSLRAEDTAVYYCARDTGFWSADAFDIWGQGTMVTVSS
VL: DIQMTQSPSSLSASVGDRVTITCRTSQGINHYLNWYQQKPGKAPKILVFAASELQTGVPSRFSGTGSGTSYTLTITSLQPEDVATYYCQQTYTSPYTFGQGTKLEVK

ELISA (T/B) (human plasma kallikrein [2]): 4.8
B10: M10-F09 (Fab, V domains shown)
VH: EVQLLESGGGLVQPGGSLRLSCAASGFTFSNYDMMWVRQAPGKGLEWVSYISPSGGFTRYADSVKGRFTISRDNSKNTLYLQMNSLRAEDTATYYCAKDIYYYNWGPSHYFDSWGQGTLVTVSS
VL: DIQMTQSPSSLSASVGDRVTITCRASQTIDDDLIWYQQKPGRAPKLLIYAASSLQSGVPSRFSGSGSGTDFTLTITSLQPEDFATYYCQQSYNIPRTFGQGTKLESK

ELISA (T/B) (human plasma kallikrein [1]): 28.8
B11: M29-E09 (Fab, V domains shown)
VH: EVQLLESGGGLVQPGGSLRLSCAASGFTFSWYEMGWVRQAPGKGLEWVSSIYSSGGGTMYADSVKGRFTISRDNSKNTLYLQMNSLRAEDTAVYYCARNPQYSGYDRSLSDGAFDIWGQGTMVTVSS
VL: QYELTQPPSVSVSPGQTATITCSGDNLGNKYNSWYQQKPGQSPLLVIYQDTKRPSAIPERFSGSNSGNTATLTISGTQAMDEADYYCQAWDGNVVFGGGTKLTVL

ELISA (T/B) (human plasma kallikrein [2]): 7.1
B12: M10-G09 (Fab, V domains shown)
VH: EVQLLESGGGLVQPGGSLRLSCAASGFTFSQYGMQWVRQAPGKGLEWVSSIRSSGGATRYADSVKGRFTISRDNSKNTLYLQMNSLRAEDTAVYYCARDGYYDSSGYPDYWGQGTLVTVSS
VL: DIQMTQSPSSLSASVGDSVTITCRASQSISGYINWYQQKAGKAPKLLIYAASSLQSGVPSRFSGSGSGTHFTLTISSLQPEDFATYYCQQYVSYPFTFGPGTKVDIK

ELISA (T/B) (human plasma kallikrein [1]): 11.1
B13: M35-G04 (Fab, V domains shown)
VH: EVQLLESGGGLVQPGGSLRLSCAASGFTFSYYHMSWVRQAPGKGLEWVSVISPSGGSTKYADSVKGRFTISRDNSKNTLYLQMNSLRAEDTAVYYCARGGSSDYAWGSYRRPYYFDYWGQGTLVTVSS
VL: DIQMTQSPATLSLSPGERATLSCRASQSVSSYLAWYQQKPGQAPRLLIYDASNRATGIPARFSGSGSGTDFTLTISSLEPEDFAVYYCQQRSNWPRGFTFGPGTKVDIK
notes: also called 559A-M35-G04; 559A-M0035-G04

ELISA (T/B) (human plasma kallikrein [2]): 32.8
B14: M10-E06 (Fab, V domains shown)
VH: EVQLLESGGGLVQPGGSLRLSCAASGFTFSLYRMFWVRQAPGKGLEWVSSIWSSGGPTMYADSVKGRFTISRDNSKNTLYLQMNSLRAEDTAVYYCAREYPSTYYFDYWGQGTLVTVSS
VL: DIQMTQSPSSLSASVGDRVTITCRASQSISTYLNWYQQKPGKAPKLLIYGASSLQSGVPSRFSGSGSGTDFTLTISSLQPEDFTIYYCQQSYSDPYTFGQGTKLDIK

ELISA (T/B) (human plasma kallikrein [1]): 47.5
B15: M29-D09 (Fab, V domains shown)
VH: EVQLLESGGGLVQPGGSLRLSCAASGFTFSWYTMVWVRQAPGKGLEWVSYIYPSGGATFYADSVKGRFTISRDNSKNTLYLQMNSLRAEDTAVYYCAMGSYDYIWGFYSDHWGQGTLVTVSS
VL: QSALTQPPTVSVSPGQTARITCSGNKLGDKYVAWYQQKPGQSPMLVIYQDTKRPSRVSERFSGSNSANTATLSISGTQALDEADYYCQAWDSSIVIFGGGTRLTVL
notes: also called 559A-M29-D09 (sFab); 559A-M0029-D09

ELISA (T/B) (human plasma kallikrein [2]): 12.6
B16: M11-E06 (Fab, V domains shown)
VH: EVQLLESGGGLVQPGGSLRLSCAASGFTFSQYAMHWVRQAPGKGLEWVSSIYPSGGFTLYADSVKGRFTISRDNSKNTLYLQMNSLRAEDTAMYYCARGGWLAGGELLNWGQGTLVTVSS
VL: DIQMTQSPSSLSASIGDRVTISCRASRGIGTYLNWYQQHAGKAPKLLIRAASSLETGVPPRFSGSGSGTDFTLTISSLQSDDFATYYCQESFTNVYNFGQGTKLEIK
